T1: human CD39 expressed on the cell surface (human, UniProt P49961 1-510)
T1 construct: full-length human CD39 transfected into CHO-K1, or endogenous human CD39 on primary cells and cell lines, or human CD39 of knock-in mice; also called Human CD39-CHO-K1; cellular human CD39
T1 sequence: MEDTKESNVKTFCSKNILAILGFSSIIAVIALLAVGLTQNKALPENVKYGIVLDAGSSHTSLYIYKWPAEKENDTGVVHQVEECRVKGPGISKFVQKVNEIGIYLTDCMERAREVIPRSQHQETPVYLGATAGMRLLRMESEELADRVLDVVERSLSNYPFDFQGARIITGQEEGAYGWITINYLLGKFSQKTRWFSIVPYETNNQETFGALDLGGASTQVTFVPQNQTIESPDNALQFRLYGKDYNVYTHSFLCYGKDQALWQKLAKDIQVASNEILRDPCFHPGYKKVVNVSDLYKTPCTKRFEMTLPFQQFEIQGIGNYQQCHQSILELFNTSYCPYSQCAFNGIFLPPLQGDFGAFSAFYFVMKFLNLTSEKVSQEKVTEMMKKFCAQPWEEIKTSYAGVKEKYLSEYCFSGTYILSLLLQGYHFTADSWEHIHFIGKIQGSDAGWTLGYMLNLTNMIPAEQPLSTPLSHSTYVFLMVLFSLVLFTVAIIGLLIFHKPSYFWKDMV

T2: soluble His-tagged human CD39 ECD protein (human, UniProt P49961 38-478)
T2 construct: also called human CD39 ECD His-tagged antigen; Sino Biological Cat. No. 16020-H08B
T2 sequence: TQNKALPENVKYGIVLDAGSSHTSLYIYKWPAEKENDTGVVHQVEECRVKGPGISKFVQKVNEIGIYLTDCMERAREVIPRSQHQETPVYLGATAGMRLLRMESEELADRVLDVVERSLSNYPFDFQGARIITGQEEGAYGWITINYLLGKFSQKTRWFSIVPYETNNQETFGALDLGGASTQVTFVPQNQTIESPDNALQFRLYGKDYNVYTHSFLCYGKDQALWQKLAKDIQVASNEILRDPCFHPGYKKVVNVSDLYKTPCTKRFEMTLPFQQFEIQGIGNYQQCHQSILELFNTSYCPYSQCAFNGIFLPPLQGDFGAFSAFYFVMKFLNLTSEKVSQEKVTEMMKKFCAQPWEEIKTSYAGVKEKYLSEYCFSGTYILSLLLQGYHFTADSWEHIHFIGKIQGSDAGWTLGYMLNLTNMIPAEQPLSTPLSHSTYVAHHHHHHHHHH

T3: recombinant human CD39 (soluble) (human, UniProt P49961 38-478, limits assumed)
T3 sequence (looked up): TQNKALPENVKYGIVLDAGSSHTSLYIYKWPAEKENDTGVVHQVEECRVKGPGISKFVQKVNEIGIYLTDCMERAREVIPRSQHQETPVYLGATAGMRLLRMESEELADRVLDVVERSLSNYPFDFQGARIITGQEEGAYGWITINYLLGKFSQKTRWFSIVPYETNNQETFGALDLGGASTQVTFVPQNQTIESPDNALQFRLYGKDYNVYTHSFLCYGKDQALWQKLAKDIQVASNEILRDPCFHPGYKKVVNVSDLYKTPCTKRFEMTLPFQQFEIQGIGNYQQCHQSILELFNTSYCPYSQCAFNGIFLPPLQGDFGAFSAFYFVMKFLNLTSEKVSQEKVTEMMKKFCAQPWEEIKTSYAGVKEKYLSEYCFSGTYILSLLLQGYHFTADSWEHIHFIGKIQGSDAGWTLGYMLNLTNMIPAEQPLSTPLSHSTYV

T4: cynomolgus monkey CD39 expressed on HEK-293 cells (cynomolgus monkey, UniProt P49961 5-510 (human entry))
T4 construct: also called Cynomolgus Monkey CD39-HEK293
T4 chain: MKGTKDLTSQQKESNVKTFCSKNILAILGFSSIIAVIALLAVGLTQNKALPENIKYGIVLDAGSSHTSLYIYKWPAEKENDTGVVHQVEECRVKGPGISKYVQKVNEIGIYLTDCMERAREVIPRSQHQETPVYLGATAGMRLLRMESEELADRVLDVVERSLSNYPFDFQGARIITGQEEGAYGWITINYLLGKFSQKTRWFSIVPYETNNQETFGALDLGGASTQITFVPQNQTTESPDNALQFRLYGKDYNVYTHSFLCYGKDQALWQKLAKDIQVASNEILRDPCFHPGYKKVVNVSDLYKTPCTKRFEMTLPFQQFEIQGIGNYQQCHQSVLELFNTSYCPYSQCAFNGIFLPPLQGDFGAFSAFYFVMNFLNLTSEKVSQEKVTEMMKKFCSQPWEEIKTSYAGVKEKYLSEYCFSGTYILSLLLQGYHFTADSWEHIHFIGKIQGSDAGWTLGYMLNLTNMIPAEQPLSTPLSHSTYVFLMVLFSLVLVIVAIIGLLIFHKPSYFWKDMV

T5: murine CD39 expressed on HEK-293 cells (murine, UniProt P55772 1-510)
T5 construct: also called mouse CD39
T5 sequence: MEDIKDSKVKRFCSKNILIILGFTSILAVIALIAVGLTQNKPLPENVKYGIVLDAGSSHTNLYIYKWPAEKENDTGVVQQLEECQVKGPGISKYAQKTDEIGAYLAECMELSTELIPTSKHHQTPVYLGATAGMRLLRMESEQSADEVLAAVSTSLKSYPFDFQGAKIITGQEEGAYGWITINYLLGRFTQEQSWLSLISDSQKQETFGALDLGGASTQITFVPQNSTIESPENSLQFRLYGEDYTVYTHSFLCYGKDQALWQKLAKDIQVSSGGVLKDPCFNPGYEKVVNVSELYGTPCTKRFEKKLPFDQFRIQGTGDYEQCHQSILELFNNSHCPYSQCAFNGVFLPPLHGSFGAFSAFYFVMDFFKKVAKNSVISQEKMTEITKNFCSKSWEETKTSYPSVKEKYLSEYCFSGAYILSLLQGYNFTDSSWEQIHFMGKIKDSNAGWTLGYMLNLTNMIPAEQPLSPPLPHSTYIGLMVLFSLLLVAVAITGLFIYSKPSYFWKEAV


What was measured:
[1] = target: T1, human CD39 expressed on the cell surface; assay: flow cytometry on human PBMCs gated on CD19+ B cells, one donor, 0 µM ATP
[2] = target: T1, human CD39 expressed on the cell surface; assay: flow cytometry on human PBMCs gated on CD14+ monocytes, 400 uM ATP (N = 6)
[3] = target: T1, human CD39 expressed on the cell surface; assay: flow cytometry on human PBMCs gated on CD14+ monocytes, 0 uM ATP (N = 8)
[4] = target: T1, human CD39 expressed on the cell surface; assay: cell-based or functional assay
[5] = target: T1, human CD39 expressed on the cell surface; assay: flow cytometry on human PBMCs gated on CD19+ B cells, one donor, 400 µM ATP
[6] = target: T1, human CD39 expressed on the cell surface; assay: cell-based or functional assay; remark: listed apart in the source
[7] = target: T1, human CD39 expressed on the cell surface; assay: flow cytometry on human PBMCs gated on CD19+ B cells, 0 uM ATP (N = 8)
[8] = target: T1, human CD39 expressed on the cell surface; assay: flow cytometry on human PBMCs gated on CD19+ B cells, 400 uM ATP (N = 6)
[9] = target: T1, human CD39 expressed on the cell surface; assay: cell-based or functional assay; remark: listed apart in the source
[10] = target: T1, human CD39 expressed on the cell surface; assay: flow cytometry on purified human CD14+ monocytes, 0 uM ATP
[11] = target: T1, human CD39 expressed on the cell surface; assay: cell-based or functional assay; remark: listed apart in the source
[12] = target: T2, soluble His-tagged human CD39 ECD …; assay: SPR (Biacore 8K), antibody captured via anti-human Fc, CD39 ECD analyte
[13] = target: T3, recombinant human CD39 (soluble); assay: cell-based or functional assay
[14] = target: T1, human CD39 expressed on the cell surface; assay: flow cytometry on purified human CD14+ monocytes, 400 uM ATP
[15] = target: T4, cynomolgus monkey CD39 expressed on …; assay: FACS on HEK293 cells overexpressing cynomolgus CD39
[16] = target: T2, soluble His-tagged human CD39 ECD …; assay: SPR (Biacore 8K), antibody captured via anti-human Fc, CD39 ECD analyte, 25 C
[17] = target: T5, murine CD39 expressed on HEK-293 cells; assay: FACS on HEK-293 cells overexpressing murine CD39 (method of Example 1)
[18] = target: T1, human CD39 expressed on the cell surface; assay: FACS on CHO-K1 cells overexpressing human CD39
[19] = target: T1, human CD39 expressed on the cell surface; assay: cell-based or functional assay; remark: listed apart in the source
[20] = target: T2, soluble His-tagged human CD39 ECD …; assay: SPR (Biacore 8K), antibody captured via anti-human Fc, CD39 ECD analyte; remark: listed apart in the source
[21] = target: T1, human CD39 expressed on the cell surface; assay: flow cytometry on whole blood of C57BL/6 hCD39KI MC38 mice treated in vivo with isotype control, with saline or oxaliplatin; signal over the IgG1.FcS-AF647 isotype control (bottom row of panels)

Binder	Human THP-1 CD39 inhibition IC50 [9]	EC50 [10]	IC50, CD39 enzymatic inhibition on SK-MEL-5 cells, 20 uM ATP [11]	Max Inhibition (%), SK-MEL-5 cells [11]	IC50, inhibition of recombinant CD39 enzymatic activity, 20 uM ATP [13]	Max Inhibition (%), recombinant CD39, 20 uM ATP [13]	EC50 [14]	EC50 [15]	Kd [16]	koff [16]	kon [16]	binding result [17]	EC50 [18]	IC50, CD39 enzymatic inhibition on THP-1 cells, 20 uM ATP [19]	Max Inhibition (%), THP-1 cells [19]	other results
huBMK2_IGG1.AEASS (antibody, human IgG1, kappa, V domains shown, also called previously described anti-CD39 antibody (comparator)) VH: QVQLVQSGAEVKKPGASVKVSCKASGYTFTDYNMHWVRQAPGQRLEWIGYIVPLNGGSTFNQKFKGRATITVDTSARTAYMELSSLRSEDTAVYYCARGGTRFAYWGQGTLVTVSS VL: DIVMTQSPDSLAVSLGERATINCRASESVDNFGVSFMYWFQQKPGQPPKLLIYGASNQGSGVPDRFSGSGSGTDFTLTISSLQAEDVAVYYCQQTKEVPYTFGGGTKVEIKR	–	–	–	–	–	–	–	–	–	–	–	–	–	–	–	EC50 (read off the curve) [1]: ~0.7 nM; EC50 [2]: 1 nM; EC50 [3]: 1 nM; IC50, CD39 enzymatic inhibition on human monocytes, 20 uM ATP [4]: 2.7 nM; Max Inhibition (%), human monocytes, 20 uM ATP [4]: 74%; EC50 (read off the curve) [5]: ~0.8 nM; IC50, CD39 enzymatic inhibition on human monocytes, 400 uM ATP [6]: 1.4 nM; Max Inhibition (%), human monocytes, 400 uM ATP [6]: 62%; EC50 [7]: 0.9 nM; EC50 [8]: 0.8 nM
ch31_IGG4.P (antibody, human IgG4 S228P, kappa, V domains shown, rat/human chimera of antibody 31, human IgG4 (S228P), kappa) VH: EVHLQQSGAALVRPGTSVKLPCKVSGDSITAYFMHFVRQRPGQGLEWMGRIDPDHERTKYAEKFKNRASLTSETSSNTVFLQLTSLTSEDTATYFCTTERVPGFETDYWGQGVMVTVSS VL: DIVLTQSPTLAVSLGQRATISCRTNQTVDHYGTTYMNWYQQKPGQQPKLLIYLASSLASGIPARFSGRGSGTDFTLTIDPVEADDTATYYCQQSRNLWTFGGGTKLELKR	0.09 nM	27 nM	2.4 nM	63%	1.3 nM	100%	28 nM	2.55 nM	0.113 nM	0.000125 s⁻¹	1.1e+06 M⁻¹ s⁻¹	no binding	4.44 nM	0.14 nM	86%	Kd [12]: 0.129 nM; koff [12]: 0.00015 s⁻¹; kon [12]: 1.16e+06 M⁻¹ s⁻¹
ch39_IGG4.P (antibody, human IgG4 S228P, kappa, rat/human chimera of antibody 39, human IgG4 (S228P), kappa) heavy: not shown light: DTVLTQSPALAVSPGERVSISCRASEGVKSYMHWYQQKPGQQPKLLIYKASNLASGVPARFSGSGSGTDFTLTIDPVEADDTATYFCQQSWNDPTFGAGTKLELKRTVAAPSVFIFPPSDEQLKSGTASVVCLLNNFYPREAKVQWKVDNALQSGNSQESVTEQDSKDSTYSLSSTLTLSKADYEKHKVYACEVTHQGLSSPVTKSFNRGEC	0.042 nM	0.69 nM	0.56 nM	63%	2.3 nM	100%	1.3 nM	0.32 nM	0.214 nM	7.45e-05 s⁻¹	348000 M⁻¹ s⁻¹	no binding	0.79 nM	0.11 nM	67%	Kd [20]: 0.336 nM; koff [20]: 9.4e-05 s⁻¹; kon [20]: 280000 M⁻¹ s⁻¹
hu39.5_IGG1.AA-AF647 (antibody, human IgG1, kappa, L234A L235A, antibody conjugated to AF647 (Lightning Link kit; residues not stated)) heavy: not shown light: DTVLTQSPASLAVSPGQRATITCRASEGVKSYMHWYQQKPGQPPKLLIYKASNLASGVPARFSGSGSGTDFTLTINPVEADDTANYYCQQSWNDPTFGQGTKLEIKRTVAAPSVFIFPPSDEQLKSGTASVVCLLNNFYPREAKVQWKVDNALQSGNSQESVTEQDSKDSTYSLSSTLTLSKADYEKHKVYACEVTHQGLSSPVTKSFNRGEC	–	–	–	–	–	–	–	–	–	–	–	–	–	–	–	binding result [21]: binds
